{"source": "patent US20220153807A1", "about": "(published 2022)", "key": {"[1]": {"target": "T1, MAGE-A3 peptide on HLA-A*02:01 (human)", "T1 peptide": "FLWGPRALV", "assay": "NFAT-luciferase Jurkat cells, CT139 alone; T2 cells with titrated MAGE-A3 peptide and 50 uM NY-ESO-1 peptide; full-length, on cells"}, "[2]": {"target": "T1, MAGE-A3 peptide on HLA-A*02:01", "assay": "as above, co-transfected with inhibitor construct C2106, 5 uM NY-ESO-1 peptide; full-length, on cells"}, "[3]": {"target": "T1, MAGE-A3 peptide on HLA-A*02:01", "assay": "as above, co-transfected with inhibitor construct C2107, 5 uM NY-ESO-1 peptide; full-length, on cells"}, "[4]": {"target": "T1, MAGE-A3 peptide on HLA-A*02:01", "assay": "as above, co-transfected with the inhibitory CAR C1761 (NY-ESO-1 scFv, LILRB1), 50 uM NY-ESO-1 peptide; reduced against CT139 alone; full-length, on cells"}}}
{"binder": "CT139, MAGE-A3 pep1 TCR (both alpha and beta chains) (TCR, V domains shown) Valpha: AQSVDQPDAHVTLSEGASLELRCSYSYSAAPYLFWYVQYPGQSLQFLLKYITGDTVVKGTKGFEAEFRKSNSSFNLKKSPAHWSDSAKYFCALEGPDTGNYKYVFGAGTRLKVIA Vbeta: DAGVTQTPRHEVAEKGQTIILKCEPVSGHNDLFWYRQTKIQGLELLSYFRSKSLMEDGGAFKDRFKAEMLNSSFSTLKIQPTEPRDSAVYLCASSFGTASAETLYFGSGTRLTVL", "values": [{"measurement": "EC50 of peptide", "setting": "[1]", "value": 0.02, "unit": "µM"}, {"measurement": "EC50 of peptide", "setting": "[2]", "value": 0.04, "unit": "µM"}, {"measurement": "EC50 of peptide", "setting": "[3]", "value": 0.1, "unit": "µM"}, {"measurement": "EC50 of peptide", "setting": "[4]", "value": "> 1", "unit": "µM"}]}
